Here are results for five molecules from US20180185504A1 (Regeneron, published 2018).

Usually Kd stands for the constant that tells how readily two partners part at equilibrium. What is called koff is the rate constant with which the complex falls apart. In general, kon refers to the second-order rate constant of association. Low values mean slower complex formation, high ones faster complex formation.

Test [1] addresses T1, human PRLR on cells (endogenous on T47D, T47D#11, MCF7); introduced in HEK293/hPRLR/STAT5-Luc, 293/hPRLR, … (human, UniProt P16471 25-622).
T1 sequence: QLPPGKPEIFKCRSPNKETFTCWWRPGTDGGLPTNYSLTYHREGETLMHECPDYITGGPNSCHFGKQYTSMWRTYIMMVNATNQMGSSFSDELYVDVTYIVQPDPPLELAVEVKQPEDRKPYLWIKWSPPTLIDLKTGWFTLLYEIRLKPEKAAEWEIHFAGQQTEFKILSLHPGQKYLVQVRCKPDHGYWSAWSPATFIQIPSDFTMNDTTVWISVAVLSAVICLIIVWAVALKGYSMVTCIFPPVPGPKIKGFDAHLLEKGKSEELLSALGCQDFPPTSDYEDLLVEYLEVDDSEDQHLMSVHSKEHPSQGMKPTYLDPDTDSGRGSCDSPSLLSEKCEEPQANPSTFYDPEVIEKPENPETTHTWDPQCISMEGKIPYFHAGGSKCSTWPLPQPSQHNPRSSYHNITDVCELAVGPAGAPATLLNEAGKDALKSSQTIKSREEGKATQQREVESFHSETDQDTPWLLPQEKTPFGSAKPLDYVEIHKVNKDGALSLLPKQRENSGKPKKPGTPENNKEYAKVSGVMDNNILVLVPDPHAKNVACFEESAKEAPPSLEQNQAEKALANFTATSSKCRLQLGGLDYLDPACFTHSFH
In words: cell-based or functional assay.

For test [2], the target named is T2, mouse PRLR construct with an HA tag on HEK293/mPRLR cells (mouse, UniProt Q08501 20-608).
T2 construct: whole, on cells; stably transfected into HEK293
T2 sequence (looked up): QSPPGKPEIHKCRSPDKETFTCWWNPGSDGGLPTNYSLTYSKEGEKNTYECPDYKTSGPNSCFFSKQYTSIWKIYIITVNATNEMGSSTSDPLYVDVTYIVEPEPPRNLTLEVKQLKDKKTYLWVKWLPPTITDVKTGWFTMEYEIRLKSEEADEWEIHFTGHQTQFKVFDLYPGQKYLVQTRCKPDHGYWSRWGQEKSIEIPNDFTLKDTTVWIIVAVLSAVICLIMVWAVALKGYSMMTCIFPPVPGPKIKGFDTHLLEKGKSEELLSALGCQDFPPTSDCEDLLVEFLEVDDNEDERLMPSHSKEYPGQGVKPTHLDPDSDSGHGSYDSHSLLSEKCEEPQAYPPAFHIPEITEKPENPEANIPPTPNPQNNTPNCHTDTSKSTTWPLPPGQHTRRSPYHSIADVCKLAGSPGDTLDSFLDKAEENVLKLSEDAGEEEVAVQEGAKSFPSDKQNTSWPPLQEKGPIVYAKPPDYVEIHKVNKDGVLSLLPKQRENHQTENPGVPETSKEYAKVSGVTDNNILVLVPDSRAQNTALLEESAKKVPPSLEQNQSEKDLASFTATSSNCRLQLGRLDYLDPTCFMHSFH
As to the kind of experiment: FACS on HEK293/mPRLR cells.

Test [3] addresses T3, hPRLR.mFc (soluble dimeric human PRLR) (human).
T3 construct: dimeric PRLR construct
T3 chain: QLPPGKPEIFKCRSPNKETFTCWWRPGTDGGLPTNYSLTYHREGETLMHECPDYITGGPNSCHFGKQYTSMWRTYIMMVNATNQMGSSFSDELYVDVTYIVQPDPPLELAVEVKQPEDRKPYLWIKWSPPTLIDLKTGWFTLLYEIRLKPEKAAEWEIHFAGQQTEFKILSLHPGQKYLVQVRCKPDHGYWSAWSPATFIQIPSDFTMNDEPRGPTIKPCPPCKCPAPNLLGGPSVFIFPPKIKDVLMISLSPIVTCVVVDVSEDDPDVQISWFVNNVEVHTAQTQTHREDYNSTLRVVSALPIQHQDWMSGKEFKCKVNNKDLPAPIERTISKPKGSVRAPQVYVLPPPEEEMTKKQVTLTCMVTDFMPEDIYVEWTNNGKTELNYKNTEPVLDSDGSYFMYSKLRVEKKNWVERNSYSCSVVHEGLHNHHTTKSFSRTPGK
As to the kind of experiment: SPR (Biacore), antibody capture, 37 C. As for the experimental part: (§1) Measurements were conducted on a T200 Biacore instrument. Kinetic association (kₐ) and dissociation (kd) rate constants were determined by processing and fitting the data to a 1:1 binding model using Scrubber 2.0 curve fitting software.

Test [4] concerns the target T4, hPRLR.mmh (soluble monomeric human PRLR) (human).
T4 construct: soluble monomeric PRLR protein
T4 chain: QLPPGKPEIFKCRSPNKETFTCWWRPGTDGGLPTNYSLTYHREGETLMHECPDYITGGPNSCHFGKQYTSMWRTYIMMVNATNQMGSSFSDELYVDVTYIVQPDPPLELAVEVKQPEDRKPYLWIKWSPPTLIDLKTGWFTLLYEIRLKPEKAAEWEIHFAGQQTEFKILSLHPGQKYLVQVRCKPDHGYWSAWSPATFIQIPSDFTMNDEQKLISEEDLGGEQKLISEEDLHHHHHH
As to the kind of experiment: SPR (Biacore), antibody capture, 37 C. Here is the method: as §1
In general terms: Surface plasmon resonance follows binding to a sensor surface in real time, without labels.

Test [5] addresses T5, mfPRLR.mmh (soluble monomeric macaca fascicularis PRLR) (macaca fascicularis).
T5 construct: soluble monomeric PRLR protein; also called macaca fascicularis (mf) PRLR.mmh; monkey PRLR
T5 chain: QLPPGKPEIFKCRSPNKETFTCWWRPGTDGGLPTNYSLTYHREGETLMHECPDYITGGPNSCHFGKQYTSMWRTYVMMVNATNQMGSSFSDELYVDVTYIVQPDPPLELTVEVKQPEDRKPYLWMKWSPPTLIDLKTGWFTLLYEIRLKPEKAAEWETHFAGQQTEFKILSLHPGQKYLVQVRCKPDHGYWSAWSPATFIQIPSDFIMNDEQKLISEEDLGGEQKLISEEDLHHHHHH
In words: SPR (Biacore), antibody capture, 37 C. As for the experimental part:
as §1

Test [6] deals with T1, human PRLR on cells (endogenous on …). In words: FACS on T47D cells.
The target is the same in test [7]. In words: cell-based or functional assay. The source holds these as a separate data set.

B1: H1H6774P (antibody, human IgG1, V domains shown)
VH: EVQLVESGGGLAQPGGSLRLSCVASGFTFSTYWMSWVRQAPGKGLDWVGNIKQDGSEQNYVDSVRGRFTISRDNAKNSLFLQMNSLRAEDTGVYYCATLLTKGDYWGQGTLVTVSS
VL: DIQMTQSPSSLSASVGDSVTITCRASQDISNYLDWFQQKPGKAPKSLIYAASILQGGVPSRFSGSGYGTDFTLTISSLQPEDFATYYCRQYKTYPFTFGPGTKVDIK
notes: human IgG1 Fc (H1H)
B1: the “Percent Blocking at 100 nM Antibody (STAT5-Luc reporter)” value (“Percent Blocking at 100 nM Antibody” below) in test [1] came to 0%. Also, the “FACS Cell Binding (Fold Above Background)” value in test [2] amounted to 1 fold. Besides, in test [3], the Kd is 0.138 nM, the “T 1/2” value was found to be 60 min, the koff worked out at 0.000194 s⁻¹ and the kon amounted to 1.41e+06 M⁻¹ s⁻¹. Further, in test [4], binding was characterised by a dissociation constant (Kd) of 2.95 nM, the “T 1/2” value is 4 min, the koff is 0.00317 s⁻¹ and the on-rate (kon) is 1.07e+06 M⁻¹ s⁻¹. Also, in test [5], the Kd amounted to 5 nM, the “T 1/2” value was found to be 3 min, the koff was 0.00361 s⁻¹ and the kon was determined as 723000 M⁻¹ s⁻¹. Moreover, the “FACS Cell Binding (Fold Above Background)” value in test [6] came to 39 fold. Besides, the “% Internalization relative to Control I (T47D cells, imaging)” value (“% Internalization relative to Control I” for short) in test [7] is 162%.

B2: H1H6781P (antibody, human IgG1, V domains shown)
VH: EVQLVESGGDLVQPGESLRLSCTASGFTFNSYEMNWVRQAPGKGLEWVSYISSSGGTKYYVDSVKGRFTISRDNAKKSLYLQMNSLRADDTALYYCARLNGVDVFDIWGQGTMVTVSS
VL: DIQMTQSPSSLSASVGDRVTITCRASQDIFNYLAWFQQKPGKVPELLISAASTLQSGVPSRFSGSGSGTYFTLTISSLQPEDIATYYCQRYNSAPLTFGGGTKVEIK
notes: human IgG1 Fc (H1H)
As for B2, in test [1], the “IC50 of Blocking 5 nM PRL [M] (STAT5-Luc reporter, HEK293/hPRLR/STAT5-Luc cells)” value came to 2.7e-11 M and the “Percent Blocking at 100 nM Antibody” value was determined as 100%. In addition, in test [2], the “FACS Cell Binding (Fold Above Background)” value worked out at 1 fold. In test [3], binding was put at a Kd of 0.226 nM, the “T 1/2” value stood at 117 min, the koff came to 9.84e-05 s⁻¹ and the kon stood at 436000 M⁻¹ s⁻¹. Moreover, in test [4], the Kd was 0.91 nM, the “T 1/2” value worked out at 37 min, the koff amounted to 0.000309 s⁻¹ and the kon was 339000 M⁻¹ s⁻¹. Moreover, in test [5], the Kd was found to be 1.08 nM, the “T 1/2” value was found to be 43 min, the koff turned out to be 0.000267 s⁻¹ and the kon was determined as 247000 M⁻¹ s⁻¹. Further, the “FACS Cell Binding (Fold Above Background)” value in test [6] amounted to 40 fold. Further, the “% Internalization relative to Control I” value in test [7] was found to be 165%.

B3: H1H6953N (antibody, human IgG1, V domains shown)
VH: EVQLLESGGGLVQPGGTLRLSCAASGFTFSAYAMSWVRQAPGKGLEWVSSINVRAGDTYYADSVKGRFTISRDNSKNTLFLLMNSLRAEDTAAYYCAKARYSSNWGFDFWGQGTLVTVSS
VL: DIVMTQSPDSLTVSLGARTTINCQSSQTILHSSNNHNYLAWYQQKPGLPPKLLIYWSSTRESGVPDRFSGSGSGTDFTLTISSLQAEDVAIYYCQQYSNTPYTFGQGTKLEIN
notes: also called H1M6953N
Turning to B3, in test [1], the “IC50 of Blocking 5 nM PRL [M] (STAT5-Luc reporter, HEK293/hPRLR/STAT5-Luc cells)” value was found to be 1.05e-10 M and the “Percent Blocking at 100 nM Antibody” value came to 100%. Further, the “FACS Cell Binding (Fold Above Background)” value in test [2] was found to be 2 fold. Also, in test [3], the Kd is 0.116 nM, the “T 1/2” value stood at 68 min, the koff turned out to be 0.00017 s⁻¹ and the kon was found to be 1.47e+06 M⁻¹ s⁻¹. For the same molecule, in test [4], binding was put at a Kd of 1.11 nM, the “T 1/2” value turned out to be 9.4 min, the koff was 0.00122 s⁻¹ and the kon was 1.1e+06 M⁻¹ s⁻¹. For the same molecule, in test [5], the Kd was determined as 2.71 nM, the “T 1/2” value was 4.5 min, the koff was determined as 0.00256 s⁻¹ and the kon is 947000 M⁻¹ s⁻¹. Besides, the “FACS Cell Binding (Fold Above Background)” value in test [6] was determined as 40 fold. Moreover, the “% Internalization relative to Control I” value in test [7] came to 154%.

B4: H1H6792P (antibody, human IgG1, V domains shown)
VH: EVQLVESGGGLVQPGRSLRLSCAASGFTLDDHAVHWVRQAPGKGLEWVSGISWNSVYIDYADSVKGRFTIFRDNAKNSLYLQMNSLRAEDTAFYYCARDIEGARDYWGQGTLVTVSS
VL: DIQMTQSPSSLSASVGDRVTITCRASQGIRNDLGWYQQKPGKAPKRLIYAASSLQSGVPSRFSGSGYGTEFTLTISSLQPEDFAPYYCLQHNSYPLTFGGGTKVEIK
notes: human IgG1 Fc (H1H)
For B4, in test [1], the “IC50 of Blocking 5 nM PRL [M] (STAT5-Luc reporter, HEK293/hPRLR/STAT5-Luc cells)” value was determined as 5.7e-10 M and the “Percent Blocking at 100 nM Antibody” value stood at 100%. Besides, in test [2], the “FACS Cell Binding (Fold Above Background)” value is 3 fold. Moreover, in test [3], the Kd was 0.352 nM, the “T 1/2” value worked out at 66 min, the off-rate (koff) is 0.000176 s⁻¹ and the on-rate (kon) worked out at 499000 M⁻¹ s⁻¹. For the same molecule, in test [4], binding was put at a Kd of 5.27 nM, the “T 1/2” value worked out at 5 min, the koff came to 0.00229 s⁻¹ and the kon was found to be 435000 M⁻¹ s⁻¹. In test [5], binding was characterised by a dissociation constant (Kd) of 9.37 nM, the “T 1/2” value amounted to 4 min, the koff stood at 0.00286 s⁻¹ and the association rate constant (kon) turned out to be 305000 M⁻¹ s⁻¹. Besides, the “FACS Cell Binding (Fold Above Background)” value in test [6] was 37 fold. The “% Internalization relative to Control I” value in test [7] is 156%.

B5: H1H6783P (antibody, human IgG1, V domains shown)
VH: QVQLQQSGPGLVKPSQTLSLTCAISGDSVSSNTFAWNWIRQSPSRGLEWLGRTYYRSKWYIDYAESVKSRITITPDTSKNQFSLQLNSVTPEDTALYYCAGGYTYAPRGAFDIWGQGTMVTVSS
VL: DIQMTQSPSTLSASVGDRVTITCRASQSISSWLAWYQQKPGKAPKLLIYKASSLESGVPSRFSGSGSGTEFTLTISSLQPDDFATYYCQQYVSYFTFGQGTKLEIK
notes: human IgG1 Fc (H1H)
On to B5, for which the “Percent Blocking at 100 nM Antibody” value in test [1] was found to be 59%. In addition, the “FACS Cell Binding (Fold Above Background)” value in test [2] was 1 fold. In test [3], the Kd came out at 0.282 nM, the “T 1/2” value worked out at 83 min, the koff came to 0.000138 s⁻¹ and the kon was determined as 491000 M⁻¹ s⁻¹. In addition, in test [4], the affinity, expressed as Kd, was 3.91 nM; the “T 1/2” value is 7 min; the koff came out at 0.00161 s⁻¹; the kon is 411000 M⁻¹ s⁻¹. In test [5], the Kd turned out to be 4.74 nM, the “T 1/2” value was 9 min, the koff was 0.0013 s⁻¹ and the on-rate constant (kon) worked out at 273000 M⁻¹ s⁻¹. For the same molecule, in test [6], the “FACS Cell Binding (Fold Above Background)” value was 38 fold. Further, in test [7], the “% Internalization relative to Control I” value is 161%.
